Measured values reported in patent EP1244779B1.

Legend:
Assay in all cases: cell-based or functional assay
[1] = target: subtilisin 309 variant S99SQ + S99T (B. lentus) (UniProt P29600)
[2] = target: subtilisin 309 variant S99SD + S99A + S216SP (B. lentus) (UniProt P29600)
[3] = target: subtilisin 309 variant S99SD + S99A + T143K (B. lentus) (UniProt P29600)
[4] = target: subtilisin 309 variant A98AI+A98G+S99H+G100S+S101A (B. lentus) (UniProt P29600)
[5] = target: subtilisin 309 variant A98AT + Y167A + R170S + A194P (B. lentus) (UniProt P29600)
[6] = target: subtilisin 309 variant S99SD (B. lentus) (UniProt P29600)
[7] = target: subtilisin 309 variant S99SD + S99A + P131T (B. lentus) (UniProt P29600)
[8] = target: subtilisin 309 variant S99SD + S99A + S216SDP (B. lentus) (UniProt P29600)
[9] = target: subtilisin 309 variant S99SD + S99A + A133E (B. lentus) (UniProt P29600)
[10] = target: Savinase (subtilisin 309 from B. lentus) (B. lentus) (UniProt P29600)
[11] = target: subtilisin 309 variant S99SD + S99A + L217F + A228V + A230V (B. lentus) (UniProt P29600)
[12] = target: subtilisin 309 variant S99SD + S99A + L217LP (B. lentus) (UniProt P29600)
[13] = target: subtilisin 309 variant S99SR + S99T (B. lentus) (UniProt P29600)
[14] = target: subtilisin 309 variant S99SN (B. lentus) (UniProt P29600)
[15] = target: subtilisin 309 variant S99SD + S99A + P129PR (B. lentus) (UniProt P29600)
[16] = target: subtilisin 309 variant S99SE (B. lentus) (UniProt P29600)
[17] = target: subtilisin 309 variant S99SD + M222S (B. lentus) (UniProt P29600)
[18] = target: subtilisin 309 variant S99SD + N76D + A194P + A230V (B. lentus) (UniProt P29600)
[19] = target: subtilisin 309 variant S99SD + S99A + P129PD (B. lentus) (UniProt P29600)
[20] = target: subtilisin 309 variant S99SD + S99A (B. lentus) (UniProt P29600)
[21] = target: subtilisin 309 variant S99SD + S99A + L42LN (B. lentus) (UniProt P29600)

trypsin inhibitor type IV-0 (Ovo-inhibitor) (from UniProt P10184 69-517)
Residual Activity (%) [1]: 25%
Residual Activity (%) [2]: 29.2%
Residual Activity (%) [3]: 23%
Residual Activity (%) [4]: 22%
Residual Activity (%) [5]: 88%
Residual Activity (%) [6]: 25%
Residual Activity (%) [7]: 35.6%
Residual Activity (%) [8]: 35%
Residual Activity (%) [9]: 39%
Residual Activity (%) [10]: < 5%
Residual Activity (%) [11]: 12%
Residual Activity (%) [12]: 97%
Residual Activity (%) [13]: 67.7%
Residual Activity (%) [14]: 19%
Residual Activity (%) [15]: 21%
Residual Activity (%) [16]: 27%
Residual Activity (%) [17]: 25%
Residual Activity (%) [18]: 18.4%
Residual Activity (%) [19]: 50%
Residual Activity (%) [20]: 27.3%
Residual Activity (%) [21]: 69.2%
